This experiment concerns the target NLGN-1ΔAB-Fc (neuroligin-1 lacking splice inserts A and B, residues Q46-S693, with a C-terminal Fc domain) (UniProt Q62765). Nature of the experiment: SPR.

pKd: −log10 of the molar value.

On to “β-NRXN-1 (ΔSS#4), soluble recombinant (domain or fragment)”, for which the negative-log Kd (pKd) is 7.52.

The values above are taken from PMC3279696.
